The record followed here is US20140087995A1 (published 2014).

Experiment [1] addresses T1, human calcitonin receptor (human, UniProt P30988 25-474).
T1 construct: whole, on cells; Used as cell membranes; also called hCTR; hCT
T1 sequence (looked up): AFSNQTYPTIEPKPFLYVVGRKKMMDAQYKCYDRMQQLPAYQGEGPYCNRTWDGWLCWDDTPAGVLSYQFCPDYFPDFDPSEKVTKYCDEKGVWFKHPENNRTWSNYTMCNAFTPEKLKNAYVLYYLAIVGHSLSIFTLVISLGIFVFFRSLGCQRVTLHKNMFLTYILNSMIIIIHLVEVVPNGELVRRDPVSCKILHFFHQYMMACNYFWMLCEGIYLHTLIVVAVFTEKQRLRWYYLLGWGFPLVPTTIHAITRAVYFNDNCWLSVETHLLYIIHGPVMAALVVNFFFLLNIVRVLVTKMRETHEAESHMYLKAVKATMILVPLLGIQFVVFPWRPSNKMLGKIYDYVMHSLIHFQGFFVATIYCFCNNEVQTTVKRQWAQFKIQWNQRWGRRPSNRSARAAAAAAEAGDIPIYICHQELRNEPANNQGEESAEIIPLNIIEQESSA
The experiment in a line: SPA competition on BHK cell membranes, 125I-calcitonin as radioligand (Assay VII). As for the experimental part:
Membranes were prepared in the following way; the cells were rinsed with PBS and incubated with Versene for approximately 5 min before harvesting. The cells were flushed with PBS and the cell-suspension was centrifuged for 5 min at 1000 rpm. Cells were homogenized (Ultrathurrax) in a buffer containing 20 mM Na-HEPES and 10 mM EDTA (pH 7.4) and centrifuged at 20.000 rpm for 15 min. The resulting pellet was resuspended, homogenized and centrifuged (20.000 rpm, 15 min) in a buffer containing 20 mM Na-HEPES and 0.1 mM EDTA (pH 7.4, buffer 2). The resulting pellet was resuspended in buffer 2 and protein concentration was measured (BCA protein Assay, Pierce). The homogenate was kept cold during the whole procedure. The membranes were kept at −80° C. until use. Assay was performed in a 384 well Optiplate (PerkinElmer) in a total volume of 40 ul. Membranes were mixed with SPA beads. Final concentration of membranes 35 ng/μL final and Final concentration of SPA beads was 0.05 mg/well. Test-compounds were dissolved in DMSO and further diluted in assay buffer (50 mM Hepes, pH 7.4, 1 mM CaCl2, 5 mM MgCl₂, 0.1% OA and 0.02% Tween20). […] The final mixture was incubated for 120 min with shaking at 400 rpm at 25° C. prior to centrifugation (1500 rpm, 10 min). Samples were analyzed on TopCounter™ (Packard). The […] was calculated using (one site binding competition analysis) GraphPad Prism5 as a measure of receptor affinity.

Experiment [2] addresses T1, human calcitonin receptor. The experiment in a line: ratio of hCTR IC50 to hAmylin-R IC50 (reference: human amylin receptor). The method, then: The resulting pellet was resuspended, homogenized and centrifuged (20.000 rpm, 15 min) in a buffer containing 20 mM Na-HEPES and 0.1 mM EDTA (pH 7.4, buffer 2). The resulting pellet was resuspended in buffer 2 and protein concentration was measured (BCA protein Assay, Pierce). The homogenate was kept cold during the whole procedure. The membranes were kept at −80° C. until use. The assay was performed in a 384 well Optiplate (PerkinElmer) in a total volume of 40 ul. Membranes were mixed with SPA beads. Final concentration of membranes 35 ng/μL final and SPA beads was 0.05 mg/well. Test-compounds were dissolved in DMSO and further diluted in assay buffer (50 mM Hepes, pH 7.4, 1 mM CaCl2, 5 mM MgCl₂, 0.1% OA and 0.02% Tween20). […] The final mixture was incubated with shaking at 400 rpm for 120 min at 25° C. prior to centrifugation (1500 rpm, 10 min). Samples were analyzed on TopCounter™ (Packard). The IC₅₀ was calculated using (one site binding competition analysis) GraphPad Prism5 as a measure of receptor affinity.
Membranes were prepared in the following way; the cells were rinsed with PBS and incubated with Versene for approximately 5 min before harvesting. The cells were flushed with PBS and the cell-suspension was centrifuged for 5 min at 1000 rpm. Cells were homogenized (Ultrathurrax) in a buffer containing 20 mM Na-HEPES and 10 mM EDTA (pH 7.4) and centrifuged at 20.000 rpm for 15 min. The resulting pellet was resuspended, homogenized and centrifuged (20.000 rpm, 15 min) in a buffer containing 20 mM Na-HEPES and 0.1 mM EDTA (pH 7.4, buffer 2). The resulting pellet was resuspended in buffer 2 and protein concentration was measured (BCA protein Assay, Pierce). The homogenate was kept cold during the whole procedure. The membranes were kept at −80° C. until use. Assay was performed in a 384 well Optiplate (PerkinElmer) in a total volume of 40 ul. Membranes were mixed with SPA beads.

Numbered stars: 1 amine (or outer) side, 2 acyl side, 3 side chain; on linkers, the order of the positions; unused ones are H or OH. Bridge positions count the residues as written; N and C are the ends. Side chains are listed from the residue outwards. Ends that are not written are not given here. * marks the point of attachment. C20 diacid = O=C(O)CCCCCCCCCCCCCCCCCCC(=O)*; γGlu = O=C(O)[C@H](CCC(=O)[*:2])N[*:1]; AEEA = NCCOCCOCC(=O)O

B1: N^ε1-[2-[2-[2-[[(4S)-4-carboxy-4-(19-carboxynonadecanoylamino)butanoyl]amino]ethoxy]ethoxy]acetyl]-[Gly14,Arg17,Pro21,Pro27,Pro31]-h-amylin (peptide)
peptide: K([AEEA-γGlu-C20 diacid])CNTATCATQRLAGFLRHSSPNFGAIPSSTPVGSNTY-NH2
modifications: disulfide 2-7; N-terminus assumed
SMILES: CC[C@H](C)[C@H](NC(=O)[C@H](C)NC(=O)CNC(=O)[C@H](Cc1ccccc1)NC(=O)[C@H](CC(N)=O)NC(=O)[C@@H]1CCCN1C(=O)[C@H](CO)NC(=O)[C@H](CO)NC(=O)[C@H](Cc1c[nH]cn1)NC(=O)[C@H](CCCNC(=N)N)NC(=O)[C@H](CC(C)C)NC(=O)[C@H](Cc1ccccc1)NC(=O)CNC(=O)[C@H](C)NC(=O)[C@H](CC(C)C)NC(=O)[C@H](CCCNC(=N)N)NC(=O)[C@H](CCC(N)=O)NC(=O)[C@@H](NC(=O)[C@H](C)NC(=O)[C@@H]1CSSC[C@H](NC(=O)[C@@H](N)CCCCNC(=O)COCCOCCNC(=O)CC[C@H](NC(=O)CCCCCCCCCCCCCCCCCCC(=O)O)C(=O)O)C(=O)N[C@@H](CC(N)=O)C(=O)N[C@@H]([C@@H](C)O)C(=O)N[C@@H](C)C(=O)N[C@@H]([C@@H](C)O)C(=O)N1)[C@@H](C)O)C(=O)N1CCC[C@H]1C(=O)N[C@@H](CO)C(=O)N[C@@H](CO)C(=O)N[C@H](C(=O)N1CCC[C@H]1C(=O)N[C@H](C(=O)NCC(=O)N[C@@H](CO)C(=O)N[C@@H](CC(N)=O)C(=O)N[C@H](C(=O)N[C@@H](Cc1ccc(O)cc1)C(N)=O)[C@@H](C)O)C(C)C)[C@@H](C)O
notes: also called compound 71
As to B1, the IC50 in experiment [1] was 1.53 nM. In experiment [2], the “Ratio hCT/hAmylin binding” value is 32.

B2: N^ε1-[2-[2-[2-[[(4S)-4-carboxy-4-(19-carboxynonadecanoylamino)butanoyl]amino]ethoxy]ethoxy]acetyl]-[His14,Arg17,Pro21,Pro27,His34]-h-amylin (peptide)
peptide: K([AEEA-γGlu-C20 diacid])CNTATCATQRLAHFLRHSSPNFGAIPSSTNVGHNTY-NH2
modifications: disulfide 2-7; N-terminus assumed
SMILES: CC[C@H](C)[C@H](NC(=O)[C@H](C)NC(=O)CNC(=O)[C@H](Cc1ccccc1)NC(=O)[C@H](CC(N)=O)NC(=O)[C@@H]1CCCN1C(=O)[C@H](CO)NC(=O)[C@H](CO)NC(=O)[C@H](Cc1c[nH]cn1)NC(=O)[C@H](CCCNC(=N)N)NC(=O)[C@H](CC(C)C)NC(=O)[C@H](Cc1ccccc1)NC(=O)[C@H](Cc1c[nH]cn1)NC(=O)[C@H](C)NC(=O)[C@H](CC(C)C)NC(=O)[C@H](CCCNC(=N)N)NC(=O)[C@H](CCC(N)=O)NC(=O)[C@@H](NC(=O)[C@H](C)NC(=O)[C@@H]1CSSC[C@H](NC(=O)[C@@H](N)CCCCNC(=O)COCCOCCNC(=O)CC[C@H](NC(=O)CCCCCCCCCCCCCCCCCCC(=O)O)C(=O)O)C(=O)N[C@@H](CC(N)=O)C(=O)N[C@@H]([C@@H](C)O)C(=O)N[C@@H](C)C(=O)N[C@@H]([C@@H](C)O)C(=O)N1)[C@@H](C)O)C(=O)N1CCC[C@H]1C(=O)N[C@@H](CO)C(=O)N[C@@H](CO)C(=O)N[C@H](C(=O)N[C@@H](CC(N)=O)C(=O)N[C@H](C(=O)NCC(=O)N[C@@H](Cc1c[nH]cn1)C(=O)N[C@@H](CC(N)=O)C(=O)N[C@H](C(=O)N[C@@H](Cc1ccc(O)cc1)C(N)=O)[C@@H](C)O)C(C)C)[C@@H](C)O
notes: also called compound 80
Regarding B2, in experiment [1], the concentration for half-maximal inhibition (IC50) was 19.8 nM. Besides, the “Ratio hCT/hAmylin binding” value in experiment [2] was 68.1.

B3: N^ε1-[2-[2-[2-[[(4S)-4-carboxy-4-(19-carboxynonadecanoylamino)butanoyl]amino]ethoxy]ethoxy]acetyl]-[His14,Arg17,Pro21,Pro27,Arg34]-h-amylin (peptide)
peptide: K([AEEA-γGlu-C20 diacid])CNTATCATQRLAHFLRHSSPNFGAIPSSTNVGRNTY-NH2
modifications: disulfide 2-7; N-terminus assumed
SMILES: CC[C@H](C)[C@H](NC(=O)[C@H](C)NC(=O)CNC(=O)[C@H](Cc1ccccc1)NC(=O)[C@H](CC(N)=O)NC(=O)[C@@H]1CCCN1C(=O)[C@H](CO)NC(=O)[C@H](CO)NC(=O)[C@H](Cc1c[nH]cn1)NC(=O)[C@H](CCCNC(=N)N)NC(=O)[C@H](CC(C)C)NC(=O)[C@H](Cc1ccccc1)NC(=O)[C@H](Cc1c[nH]cn1)NC(=O)[C@H](C)NC(=O)[C@H](CC(C)C)NC(=O)[C@H](CCCNC(=N)N)NC(=O)[C@H](CCC(N)=O)NC(=O)[C@@H](NC(=O)[C@H](C)NC(=O)[C@@H]1CSSC[C@H](NC(=O)[C@@H](N)CCCCNC(=O)COCCOCCNC(=O)CC[C@H](NC(=O)CCCCCCCCCCCCCCCCCCC(=O)O)C(=O)O)C(=O)N[C@@H](CC(N)=O)C(=O)N[C@@H]([C@@H](C)O)C(=O)N[C@@H](C)C(=O)N[C@@H]([C@@H](C)O)C(=O)N1)[C@@H](C)O)C(=O)N1CCC[C@H]1C(=O)N[C@@H](CO)C(=O)N[C@@H](CO)C(=O)N[C@H](C(=O)N[C@@H](CC(N)=O)C(=O)N[C@H](C(=O)NCC(=O)N[C@@H](CCCNC(=N)N)C(=O)N[C@@H](CC(N)=O)C(=O)N[C@H](C(=O)N[C@@H](Cc1ccc(O)cc1)C(N)=O)[C@@H](C)O)C(C)C)[C@@H](C)O
notes: also called compound 84
Take B3: in experiment [1], the IC50 amounted to 88.9 nM. The “Ratio hCT/hAmylin binding” value in experiment [2] is 120.

B4: N^ε1-[2-[2-[2-[[(4S)-4-carboxy-4-(19-carboxynonadecanoylamino)butanoyl]amino]ethoxy]ethoxy]acetyl]-[His14,Arg17,Pro21,Pro27,Pro34]-h-amylin (peptide)
peptide: K([AEEA-γGlu-C20 diacid])CNTATCATQRLAHFLRHSSPNFGAIPSSTNVGPNTY-NH2
modifications: disulfide 2-7; N-terminus assumed
SMILES: CC[C@H](C)[C@H](NC(=O)[C@H](C)NC(=O)CNC(=O)[C@H](Cc1ccccc1)NC(=O)[C@H](CC(N)=O)NC(=O)[C@@H]1CCCN1C(=O)[C@H](CO)NC(=O)[C@H](CO)NC(=O)[C@H](Cc1c[nH]cn1)NC(=O)[C@H](CCCNC(=N)N)NC(=O)[C@H](CC(C)C)NC(=O)[C@H](Cc1ccccc1)NC(=O)[C@H](Cc1c[nH]cn1)NC(=O)[C@H](C)NC(=O)[C@H](CC(C)C)NC(=O)[C@H](CCCNC(=N)N)NC(=O)[C@H](CCC(N)=O)NC(=O)[C@@H](NC(=O)[C@H](C)NC(=O)[C@@H]1CSSC[C@H](NC(=O)[C@@H](N)CCCCNC(=O)COCCOCCNC(=O)CC[C@H](NC(=O)CCCCCCCCCCCCCCCCCCC(=O)O)C(=O)O)C(=O)N[C@@H](CC(N)=O)C(=O)N[C@@H]([C@@H](C)O)C(=O)N[C@@H](C)C(=O)N[C@@H]([C@@H](C)O)C(=O)N1)[C@@H](C)O)C(=O)N1CCC[C@H]1C(=O)N[C@@H](CO)C(=O)N[C@@H](CO)C(=O)N[C@H](C(=O)N[C@@H](CC(N)=O)C(=O)N[C@H](C(=O)NCC(=O)N1CCC[C@H]1C(=O)N[C@@H](CC(N)=O)C(=O)N[C@H](C(=O)N[C@@H](Cc1ccc(O)cc1)C(N)=O)[C@@H](C)O)C(C)C)[C@@H](C)O
notes: also called compound 68
As to B4, in experiment [1], the IC50 is 5.66 nM. Besides, the “Ratio hCT/hAmylin binding” value in experiment [2] was 64.4.

As usually defined, the IC50 is the point on the concentration scale where inhibition reaches its midpoint.
